# Assay results: PMC4347215
# Biological target: recombinant CA/09 NA, thrombin-cleaved (His-tag depleted) (influenza A virus A/California/07/2009 (H1N1)pdm09) (UniProt C3W5S3)
# Experiment: crystal structure
substance,measurement,value
"recombinant CA/09 NA, thrombin-cleaved (His-tag depleted) (from UniProt C3W5S3 82-467) (enzyme)",stoichiometry N,4
